Data: patent US20250152746A1, “BASE EDITING OF ANGPTL3 AND METHODS OF USING SAME FOR TREATMENT OF DISEASE” (Verve Therapeutics, Inc., priority 2020, published 2025)
m = 2'-O-methyl; r = 2'-OH (RNA)

How the values were obtained:
PCSK9 gene [1] = experiment: PCSK9 gRNA/SpCas9 editing in primary human hepatocytes (Tables 2, 4); format: cell-based; details: SpCas9 mRNA MS002 1:1 by weight; for Human Primary Hepatocyte Editing % 100: 100 ng/RNA/mL; for Human Primary Hepatocyte Editing % 500: 500 ng/RNA/mL; for Human Primary Hepatocyte Editing % 2500: 2500 ng/RNA/mL
Outline: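 Editing at the PCSK9 site quantified by NGS of PCR amplicons from genomic DNA. Input: SpCas9 mRNA with gRNA, 1:1 by weight, transfected into primary human hepatocytes at 2500, 500 or 100 ng RNA/mL (tracr-modified guides at 2500, 1250, 500, 250 ng/mL).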

PCSK9 gene [2] = experiment: PCSK9 gRNA/SpCas9 editing in primary cynomolgus hepatocytes (Tables 2, 22); format: cell-based, cynomolgus monkey; details: SpCas9 mRNA MS002 1:1 by weight; for Cyno Primary Hepatocyte Editing % 100: 100 ng/RNA/mL; for Cyno Primary Hepatocyte Editing % 500: 500 ng/RNA/mL; for Cyno Primary Hepatocyte Editing % 2500: 2500 ng/RNA/mL

| Molecule | Human Primary Hepatocyte Editing % 100 (PCSK9 gene [1]) | Human Primary Hepatocyte Editing % 500 (PCSK9 gene [1]) | Human Primary Hepatocyte Editing % 2500 (PCSK9 gene [1]) | Cyno Primary Hepatocyte Editing % 100 (PCSK9 gene [2]) | Cyno Primary Hepatocyte Editing % 500 (PCSK9 gene [2]) | Cyno Primary Hepatocyte Editing % 2500 (PCSK9 gene [2]) |
| --- | --- | --- | --- | --- | --- | --- |
| GA227: PCSK9 gRNA; protospacer GTCCCGGAAGTTGCCGGCAG (SEQ ID NO: 221) (nucleic acid, sugars from the 5' end m3 r94 m3, linkages s3 o93 s3 (s phosphorothioate, o phosphodiester), T or U not given here) guide: GUCCCGGAAGUUGCCGGCAGGUUUUAGAGCUAGAAAUAGCAAGUUAAAAUAAGGCUAGUCCGUUAUCAACUUGAAAAAGUGGCACCGAGUCGGUGCUUUU | 0.02% | 8.29% | 32.09% | 0.56% | 4.58% | 32.41% |
| GA224: PCSK9 gRNA; protospacer GGCCGCTGACCACCCCTGCC (SEQ ID NO: 218) (nucleic acid, sugars from the 5' end m3 r94 m3, linkages s3 o93 s3 (s phosphorothioate, o phosphodiester), T or U not given here) guide: GGCCGCUGACCACCCCUGCCGUUUUAGAGCUAGAAAUAGCAAGUUAAAAUAAGGCUAGUCCGUUAUCAACUUGAAAAAGUGGCACCGAGUCGGUGCUUUU | 1.01% | 2.19% | 13.02% | 2.61% | 12.34% | 47.5% |
| GA160: PCSK9 gRNA; protospacer GCCTTGCGTTCCGAGGAGGA (SEQ ID NO: 154) (nucleic acid, sugars from the 5' end m3 r94 m3, linkages s3 o93 s3 (s phosphorothioate, o phosphodiester), T or U not given here) guide: GCCUUGCGUUCCGAGGAGGAGUUUUAGAGCUAGAAAUAGCAAGUUAAAAUAAGGCUAGUCCGUUAUCAACUUGAAAAAGUGGCACCGAGUCGGUGCUUUU | 1.19% | 5.58% | 23.3% | 1.38% | 6.60% | 23.15% |
| GA225: PCSK9 gRNA; protospacer GGCATCGTCCCGGAAGTTGC (SEQ ID NO: 219) (nucleic acid, sugars from the 5' end m3 r94 m3, linkages s3 o93 s3 (s phosphorothioate, o phosphodiester), T or U not given here) guide: GGCAUCGUCCCGGAAGUUGCGUUUUAGAGCUAGAAAUAGCAAGUUAAAAUAAGGCUAGUCCGUUAUCAACUUGAAAAAGUGGCACCGAGUCGGUGCUUUU | 0.89% | 6.39% | 18.82% | 2.03% | 3.11% | 8.57% |
| GA220: PCSK9 gRNA; protospacer GTGCTCAACTGCCAAGGGAA (SEQ ID NO: 214) (nucleic acid, sugars from the 5' end m3 r94 m3, linkages s3 o93 s3 (s phosphorothioate, o phosphodiester), T or U not given here) guide: GUGCUCAACUGCCAAGGGAAGUUUUAGAGCUAGAAAUAGCAAGUUAAAAUAAGGCUAGUCCGUUAUCAACUUGAAAAAGUGGCACCGAGUCGGUGCUUUU | 2.17% | 9.12% | 21.87% | 3.13% | 12.39% | 45.17% |
| GA219: PCSK9 gRNA; protospacer GGCAGGGGTGGTCAGCGGCC (SEQ ID NO: 213) (nucleic acid, sugars from the 5' end m3 r94 m3, linkages s3 o93 s3 (s phosphorothioate, o phosphodiester), T or U not given here) guide: GGCAGGGGUGGUCAGCGGCCGUUUUAGAGCUAGAAAUAGCAAGUUAAAAUAAGGCUAGUCCGUUAUCAACUUGAAAAAGUGGCACCGAGUCGGUGCUUUU | 1.28% | 4.57% | 15.97% | 0.35% | 11.89% | 48.67% |
| GA223: PCSK9 gRNA; protospacer GCTGACCACCCCTGCCAGGT (SEQ ID NO: 217) (nucleic acid, sugars from the 5' end m3 r94 m3, linkages s3 o93 s3 (s phosphorothioate, o phosphodiester), T or U not given here) guide: GCUGACCACCCCUGCCAGGUGUUUUAGAGCUAGAAAUAGCAAGUUAAAAUAAGGCUAGUCCGUUAUCAACUUGAAAAAGUGGCACCGAGUCGGUGCUUUU | 1.44% | 7.28% | 17.5% | 3.46% | 21.4% | 57.58% |
| GA221: PCSK9 gRNA; protospacer TCATGGCACCCACCTGGCAG (SEQ ID NO: 215) (nucleic acid, sugars from the 5' end m3 r94 m3, linkages s3 o93 s3 (s phosphorothioate, o phosphodiester), T or U not given here) guide: UCAUGGCACCCACCUGGCAGGUUUUAGAGCUAGAAAUAGCAAGUUAAAAUAAGGCUAGUCCGUUAUCAACUUGAAAAAGUGGCACCGAGUCGGUGCUUUU | 1.11% | 7.48% | 29.35% | 2.82% | 20.27% | 57.4% |
| GA222: PCSK9 gRNA; protospacer TGGCAGGGGTGGTCAGCGGC (SEQ ID NO: 216) (nucleic acid, sugars from the 5' end m3 r94 m3, linkages s3 o93 s3 (s phosphorothioate, o phosphodiester), T or U not given here) guide: UGGCAGGGGUGGUCAGCGGCGUUUUAGAGCUAGAAAUAGCAAGUUAAAAUAAGGCUAGUCCGUUAUCAACUUGAAAAAGUGGCACCGAGUCGGUGCUUUU | 0.5% | 0.66% | 2.04% | 0.88% | 3.32% | 16.7% |
